{"source": "the DeepSol protein solubility set", "data": [{"test": "soluble on expression in E. coli; label from the status in PepcDB or PDB records", "values": [{"sequence": "MSGSSEIMSMHDQIVRFSASSSAPEDTTTNSLMAEKEASLVVRLEQELTQAQICNHRLNQQLKVLANSSDKAIKIELANAKVRF", "soluble on expression in E. coli": "not soluble"}, {"sequence": "MKNKLLYKLRSGKNPKFIYYSVNALRLIIPKGIFRLRLQGKLSSLSRRKDKEYIEHRVDYYNKLSGTVQLPSSAPHLSEHKMSKQKVYFFDTYQYTRWFSDQFQWGFCPGDVTFVPDYPSIVKSRPLTDDNVNSIVMKLDKVRHFIFVDDKKAFTEKKNMVIFRGKVKGKPSRKLFMEMYFHHPMCDLGDVSKNTTDPAEWRTEKKTINEHLDYKFIMALEGIDVASNLKWVMSSNSIAVMPRPTCETWFMEGTLIPNYHYIEIKPDFSDLEERLNYYIEHVDESLEIINHAHEYVSQFKDKRRENLISLLVLDKYFKMTGQKSLEHHHHHH", "soluble on expression in E. coli": "soluble"}, {"sequence": "MGSDKIHHHHHHMKISNISYFNFRNLENTSIDLSDKINVFYGKNAQGKTSLLEAIYYSSTGISFKTKKTSEMIKYNFDEFISSISYQDYIANNKISVRFKNIAGAKKEFFFNKKRISQTDFYGKINIIAYIPEDIILINGSPKHRRDFFDIEISQIDKEYLTNLKNYDKLLKIRNKYLKENKRNSEEFAIYEKEFIKYASYIIFTRIEYVKSLSIILNLQYRKLFNIAQELNLRYETSLDKTAKVTIEMIQESLKREISQKKYQEDKYKFSLVGPHKDDYKFLLNGHEAKISASQGEKKSIIFSLKLSEIEIIKKNRKENPVVIIDDITSYFDEDRRKSILDFFNKRDIQVLISSTDKLDIEAKNFYVEKGIIKDESNINK", "soluble on expression in E. coli": "not soluble"}, {"sequence": "MGVDNFSTTKKMFTWEVPGERVITLMTAGNLATTQALISLLEERSKTPSERSPSILERPTMFEVARLVGATLKEVIADTAGTGQVASSQFKASVIVGGQVKGGLPTLFLIYPEGNFIEVTEDSPFFQIGEAKYGKPILVRAYDPDLSFEDTIRLLMVSFDSTIKANLSVGLPLDLQVYANDSFAIKEQSRVEADDAYFQSISERWGDALRKALSDLPPYKSLLEHHHHHH", "soluble on expression in E. coli": "not soluble"}, {"sequence": "MRRGNRRTPGPVCRQAFRAEFTAIHAPVVFFMSCNRQIVRSLRQQIPSFECVPGCHDCCGPVTTSPEEMSRLPRKTAAEQEAAMDELNCVHLGPNGCTVYDERPLICRLFGTTPSLPCPNGRRPVEMIHPRVEKQIHDYMASTRQVLVLEHHHHHH", "soluble on expression in E. coli": "not soluble"}, {"sequence": "MLTPRFDIQPAVSVILPTFDRAPLLASAIESVVAQNFAEWELIVVDDGSSDETFEIVDGYLNQHANIRYMKHRNRKAALSRNAGIQAAFGRYITFLDSDDLYLPEHLESRLHLLESMPEVRLISGGFVCEGDPWVRDRDDPEKLIHVSECIAGATMFGRRELFLDIGGFRALDYAEDTDLWERAARSHKVLKIDQPVSYIYRRSPGSITRTYKPAKPLEHHHHHH", "soluble on expression in E. coli": "soluble"}, {"sequence": "MTEVAKGVATHQRLVALLTQENARYRVVNHEAVGKCEAVSEIRGTALGQGAKALVCKVKGNGVNQHVLAILAADQQADLSQLASHLGGLRASLASPAEVDMLTGCVFGAIPPFSFHPNLKLVADPLLFERFDEIAFNAGLLEKSVIMNTQDYLRIARPELAVFRRFQSSPTA", "soluble on expression in E. coli": "not soluble"}, {"sequence": "MGVFTFQDEYTSTIAPAKLYKALVTDADIIIPKAVETIQSVEIVEGNGGPGTIKKLTFIEGGESKYVLHKIEAIDEANLGYNYSIVGGVGLPDTIEKISFETKLVEGANGGSIGKVTIKIETKGDAQPNEEEGKAAKARGDAFFKAIESYLSAHPDYN", "soluble on expression in E. coli": "soluble"}, {"sequence": "MSQYIYELEMKVRDYECDLQGIVNNANYQHYLEHTRHEFLTSVGVSFAALHEQGVDPVVARINMAFKTPLKSGDEFVSKLYMKKEGIKYVFYQDIFRKSDQKVVVKSTVETVCVVNGRLSNSELFDNVFAPYLK", "soluble on expression in E. coli": "not soluble"}, {"sequence": "MLYIFTPTFNRGYRLSYLYDSLCNQTNKNFIWLIVDDGSEDSTKEIVSNYIKENKVSIVYLYKRNGGKHSAYNLAMRYMQPSDYHVCVDSDDWLLEDAVEIIFKDLESLTLSNRYVGLVYPRYSLNQGNNWLNPKILEVNIPDLKYKYHLKIETCIVINNAYLVDFEFPCFEGENFLSEEIMYIYLSKKGYFCPQNRKIYCFDYLEDGLTSNIFKLWRKNFKGTIFSLENSYMYVMSFPNIFDRWWSAIKIKMNIQALKMTTLGVIPTLKSEEAGWKILLGFSYLWKVARFKKSELEHHHHHH", "soluble on expression in E. coli": "soluble"}]}]}
